Molecular target: the molecule itself
Assay: SEC; HiLoad 16/60 Superdex 200 pg, 50 mM HEPES pH 7.0 + 200 mM NaCl, against standard protein markers; self-association

B1: Phosphoglucomutase/phosphomannomutase from Thermococcus kodakarensis (PGMTk) (enzyme)
chain: MGKLFGTFGVRGIANEEITPEFALKIGMAFGTLLKREGRERPLVVVGRDTRVSGEMLKDALISGLLSTGCDVIDVGIAPTPAIQWATNHFNADGGAVITASHNPPEYNGIKLLEPNGMGLKKEREAIVEELFFSEDFHRAKWNEIGELRKEDIIKPYIEAIKNRVDVEAIKKRRPFVVVDTSNGAGSLTLPYLLRELGCKVVSVNAHPDGHFPARNPEPNEENLKGFMEIVKALGADFGVAQDGDADRAVFIDENGRFIQGDKTFALVADAVLRENGGGLLVTTIATSNLLDDIAKRNGAKVMRTKVGDLIVARALLENNGTIGGEENGGVIFPDFVLGRDGAMTTAKIVEIFAKSGKKFSELIDELPKYYQFKTKRHVEGDRKAIVAKVAELAEKKGYKIDTTDGTKIIFDDGWVLVRASGTEPIIRIFSEAKSEEKAREYLELGIKLLEEALKG
notes: Phosphoglucomutase/phosphomannomutase PGMTk, product of gene Tk1108 of Thermococcus kodakarensis, UniProt Q68BJ6; His6 and a TEV protease site were put upstream of the gene; also called Tk1108; TK1108; source: E. coli Rosetta 2(DE3)pLysS, purified (heat treatment at 85 °C, Ni-NTA, Superdex 200 gel filtration)
stoichiometry N: 4

From paper PMC11940775, “A Bifunctional Phosphoglucomutase/Phosphomannomutase from Thermococcus kodakarensis: Biophysical Analysis and Cryo-EM Structure” (Biomolecules, 2025)
